Molecular target: CXCL9_HUMAN (human) (UniProt Q07325)
Test: yeast surface display FACS re-test

CXCL9_HUMAN (human), sequence (Q07325 23-125 limits assumed): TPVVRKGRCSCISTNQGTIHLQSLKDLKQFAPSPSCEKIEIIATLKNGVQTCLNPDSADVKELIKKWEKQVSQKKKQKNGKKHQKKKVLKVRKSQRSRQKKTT

B1: P1126_AMBCA (protein)
chain: KPQILQRTDKSTDSEWDPQTCPETCIPSKNITCSDGCVCVKLGEEEEGTCFNMTGVDWLGSPSDD
% cells over threshold fluorescence: 56%
